Where a chain is given by its changes, count along the chain named.

B1: M-hProtS-2F382A1 monoclonal antibody (antibody, mouse IgG1, V domains shown)
VH: EVKLEESGGGLVQPGGSMKLSCAASGFTFSDAWMGWVRQSPEKGLEWVAEIRGKANNHATYYSESVKGRFTISRDDSKSSVYLQMNSLRAEDTGIFYCCLITAFLFDYWGQGTTLTVSS
VL: QIVLTQSPAIMSASPGEKVTMTCSGRSSENYMYWYQQKPGSPPRLWIYDTSNLVSGVPARFSGSRSGTSYSLTISSMEAEDAATYYCQQFNGYPYTFGGGTKLEIRR
notes: Purified from hybridoma supernatant; mouse IgG1, kappa
B2: M-hProtS-2F188A1 monoclonal antibody (antibody, mouse IgG1, V domains shown)
VH: QVQLQQPGAELVRPGTSVKLSCKASGYTVTSYWMNWIKQRPEQGLEWIGRIDPNDSETLYNQKFKDKVILTVDKSSSTVYIQLSSLTSEDSAVYYCARWAGSGYAMDYWGQGTSVTVSS
VL: QIVLTQSPALLSASPGEKVTMTCSASSSVSYMYWYQQKPGSSPKPWIYVTSNLASGVPARFSGSGSGTSYSLTISSMEAEDAATYYCHQWSSDPYTFGGGTKLEIRR
notes: as for B1
B3: M-hProtS-6F120A1 monoclonal antibody (antibody, mouse IgG1, V domains shown)
VH: EIQLQQSGPELVKPGASVKVSCKASGYSFTDYNMYWVKQSHGKSLEWIGYIDPYNGGTSYNQKFKGKATLTVDKSSSTAFMHLNSLTSEDSAVYYCARERDYWYFDVRGAGTTVTVSS
VL: DIVLTQSPASLAVSLGQRATISCRASKSVSASGYSYMHWYQQKPGQPPKLLIYLASNLESGVPARFSGSGSGTDFTLNIHPVEEEDAATYYCQHSRELPLTFGAGTKLELKR
notes: as for B1
B4: M-hProtS-6F206A1 monoclonal antibody (antibody, mouse IgG1, V domains shown)
VH: QVQLQQSGAEMVRPGSSVKISCKASGYAFSSHWMNWVKQRPGQGLEWIGQIYPGDGDTNYNGKFRGKAIVTADTSSSTAYLQLSSLTSEDTAVFFCAPGYHGTSYWFAYWGQGTLVTVSA
VL: DIQMSQSPSSLSASLGDTVTITCHASQNINIWLSWYQQKPGNILTLLIYKASNLYTGVPSRFSGSGSGTDFTLTISSLQPEDIATYYCQQGQSFPLTFGTGTRLELKR
notes: as for B1
B5: M-hProtS-6F151A2 monoclonal antibody (antibody, mouse IgG1, V domains shown)
VH: EVQLQQSGAELVRSGASVKLSCTASGFNIKDNYIHWVKQRPEQGLEWIGWIDPENGDTEYAPKFQGKATMTADTSSNTAYLQLSSLTSEDTAVYYCSAYGAAYWGQGTLVTVSA
VL: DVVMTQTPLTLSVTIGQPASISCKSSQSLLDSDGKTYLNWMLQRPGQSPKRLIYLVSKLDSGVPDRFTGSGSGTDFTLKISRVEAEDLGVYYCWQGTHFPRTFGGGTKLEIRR
notes: as for B1
B6: M-hProtS-6F153A2 monoclonal antibody (antibody, mouse IgG1, V domains shown)
VH: QIQLVQSGPELKKPGETVKISCKASGYTFSDYSMHWVKQTPGEGLKWMGWMNTGTGEPTYADDFKGRFAFSLETSATTAHLQINNLKNEDTATYFCARRLYYGTGLAYWGQGTLVTVSA
VL: DIVMTQSHKFMSTSVGDRVSITCKASQDVSTGVAWYQQKPGQSPKLLIFSASSRYSGVPDRFTGSGSGTDFTFTISSVQAEDLAVYYCQQHYSSPRTFGGGTKLEIKR
notes: Tested as antibody purified from hybridoma supernatant; mouse IgG1, kappa
B7: M-hProtS-3F38A2 monoclonal antibody (antibody, mouse IgG1, V domains shown)
VH: EVLLQQSGPELVKPGASVKIPCKASGYTFTDYNMDWVKQSHGKSLEWIGDINPNNGDTFYNQKFKGKATLTVDKSSSTAYMELRSLTSEDTAVYYCARSEIFTTAPDYGMGYWGQGTSVTVSS
VL: ENVLTQSPAIMSASPGEKVTMTCRASSSVSSSYLHWYQQRSGASPKLWIYGTSNLASGVPARFSGSGSGTSYSLTISSVEAEDAATYYCQQYSGYPRTFGGGTKLEIKR
notes: as for B1
B8: M-hProtS-3F62A5 monoclonal antibody (antibody, mouse IgG1, V domains shown)
VH: B7 VH with P21T, N52D, D57G, F59I, K63E, K65T, K74T, A97V, M110V, G111D
VL: B7 VL with Q38R, R40K, G51S, S78R, L105V
notes: as for B1
B9: M-hProtS-2F380A1 monoclonal antibody (antibody, mouse IgG1, V domains shown)
VH: EVKLEESGGGLVQPGGSMKLSCAASGFTFSDAWMDWVRQSPEKGLEWVAEVRSKADNHATYYAESVKGRFTISRDDSKSAVYLQMNSLRPEDTGIYYCTLTTAFLFDSWGQGTTLTVSS
VL: QIALTQSPAIMSASPGEKVTMTCSVNSSVSYMHWYQQKPGSSPRLWIYDTSNLVSGVPGRFSGSGSGTSYSLTLSSMEAEDAATYYCQQYSGYLYTFGGGTKLEIKR
notes: as for B1
B10: M-hProtS-6F128A2 monoclonal antibody (antibody, mouse IgG1, V domains shown)
VL: SIVMTQTPKFLLVSAGDRVTITCKASQSVSNDVAWYQQKPGQSPKLLIYYASNRYTGVPDRFTGSGYGTDFTFTISTVQAEDLAVYFCQQDYSSPYTFGGGTKLEIKR
V domain: QVQLQQPGAELVRPGASVKLSCKASGYTFTSYWINWVKQRPEQGLEWIGRIDPYDSETHYNQKFKDKAILTVDKSSSTAYMQLSSLTSEDSAVYYCARWGGSGYAMDYWGQGTSATVSS
notes: as for B6
B11: M-hProtS-6F265A1 monoclonal antibody (antibody, mouse IgG1, V domains shown)
VH: QVQLKESGPGLVAPSQSLSITCTVSGFSLTSYGVHWVRQPPGKGLGWLGVIWAGGRTDYNSALMSRLSISKDNSKSQVFLKMNSLQTDDTAIYYCARDYGNYNYAMDYWGQGISVTVSS
VL: ETTVTQSPASLSMAIGEKVTIRCITSTDIDDDVNWYQQKPGEPPKLLISEGNILRPGVPSRFSSSGYGTDFVFSIENMLSEDVGDYYCLQSDTLPTFGGGTKLEIKR
notes: as for B6
B12: M-hProtS-6F216A3 (mAb 0914) monoclonal antibody (antibody, V domains shown)
VH: B10 V domain with A115V
VL: B2 VL with T5S, L10I, S24R, V49A, S76R, M77V, H88Q, D93I, Y95P, R106K
notes: Mouse IgG1, kappa

For the first assay, the target named is T1, human Protein S (plasma derived) (human, UniProt P07225 42-676).
T1 construct: Bought plasma-derived human Protein S (Haematologic Technologies or Enzyme Research Laboratories); also called Plasma PS; free Protein S
T1 sequence: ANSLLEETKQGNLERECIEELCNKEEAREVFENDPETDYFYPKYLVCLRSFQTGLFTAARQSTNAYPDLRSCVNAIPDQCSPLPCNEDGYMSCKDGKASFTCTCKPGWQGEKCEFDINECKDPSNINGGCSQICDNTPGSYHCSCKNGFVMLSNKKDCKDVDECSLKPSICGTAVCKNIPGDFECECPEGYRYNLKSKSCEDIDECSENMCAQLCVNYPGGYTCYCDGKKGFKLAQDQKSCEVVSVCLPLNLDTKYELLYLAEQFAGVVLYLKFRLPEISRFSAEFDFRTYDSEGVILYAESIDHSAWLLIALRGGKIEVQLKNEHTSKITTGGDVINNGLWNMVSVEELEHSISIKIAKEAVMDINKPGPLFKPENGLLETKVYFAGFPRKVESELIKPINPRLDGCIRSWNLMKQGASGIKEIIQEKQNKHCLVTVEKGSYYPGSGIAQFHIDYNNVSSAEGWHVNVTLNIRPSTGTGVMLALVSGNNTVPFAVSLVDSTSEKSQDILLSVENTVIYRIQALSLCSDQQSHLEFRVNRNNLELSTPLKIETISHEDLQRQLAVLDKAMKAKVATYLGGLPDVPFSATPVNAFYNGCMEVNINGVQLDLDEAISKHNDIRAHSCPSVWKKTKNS
In words: ELISA, calcium-free TBS.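 Further: binding of mouse antibodies detected by ELISA with an HRP-conjugated goat anti-mouse IgG secondary and TMB substrate development.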 For orientation: In an ELISA, binding on a coated surface is turned into a signal by an enzyme label.
Procedure: (§1) After incubation and washing a HRP-labelled goat-anti-mouse IgG secondary antibody (Jackson) was added and the ELISA was developed after incubation and wash by addition of 3,3′,5,5′-Tetramethylbenzidine.
With B1, the binding result is listed as “binds”.
Still for that read-out and setting: for B2 the value was “binds”; for B3, “binds”; for B4, “binds”.
As to B5, the binding result is “binds”.
On the same count and under the same terms, for B6 the value was “binds”; for B7, “binds”; for B8, “binds”.
The same measure, in the same setting: for B9 the value was “binds”; for B10, “binds”.

The next assay has as its target T2, EGF1-4 domains of human Protein S with C-terminal HPC4 tag (human, UniProt P07225 114-286, partial hydroxylation of Asn or Asp in the EGF domains (detected by MS)).
T2 construct: also called hEGF1-4; human Protein S EGF1-4
T2 sequence: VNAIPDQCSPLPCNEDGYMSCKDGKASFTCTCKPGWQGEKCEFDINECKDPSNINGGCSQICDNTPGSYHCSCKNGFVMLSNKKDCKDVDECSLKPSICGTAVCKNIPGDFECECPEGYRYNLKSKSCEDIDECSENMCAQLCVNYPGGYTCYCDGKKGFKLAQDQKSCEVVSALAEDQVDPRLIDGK
The experiment in a line: ELISA, calcium-free TBS.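 Further: binding of mouse antibodies detected by ELISA with an HRP-conjugated goat anti-mouse IgG secondary and TMB substrate development.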
Procedure: as §1
B1: the binding result is given as “binds”.
Same read-out and setting: as for B2, the entry is “binds”.
On to B3, for which the binding result is given as “binds”.
In the case of B4, the binding result is “binds”.
Regarding B5, the binding result is “binds”.
Take B6: the binding result is “binds”.
As for B11, the binding result was “binds”.
In the case of B7, the binding result is reported as “binds”.
Turning to B8, the binding result was “binds”.
On the same count and under the same terms, as for B9, the entry is “binds”.
As for B10, the binding result is reported as “binds”.

The next assay has as its target T3, EGF domain 1 and 2 of recombinant human Protein S (human, UniProt P07225 114-200, limits assumed).
T3 construct: domain: EGF domain 1 and 2; also called hEGF1-2
T3 sequence (looked up): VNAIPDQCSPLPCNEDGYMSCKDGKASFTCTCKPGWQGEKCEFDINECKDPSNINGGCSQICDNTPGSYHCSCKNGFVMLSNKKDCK
In words: ELISA, calcium-free TBS.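 Further: binding of mouse antibodies detected by ELISA with an HRP-conjugated goat anti-mouse IgG secondary and TMB substrate development.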
Procedure: as §1
As to B3, the binding result is recorded as “no binding”.
Same read-out and setting: for B6 the value was “no binding”; for B7, “no binding”.
Still for that read-out and setting: as for B8, the entry is “no binding”.

The next assay has as its target T4, EGF domain 3 and 4 of recombinant human Protein S (human, UniProt P07225 201-286, limits assumed).
T4 construct: domain: EGF domain 3 and 4; also called hEGF3-4
T4 sequence (looked up): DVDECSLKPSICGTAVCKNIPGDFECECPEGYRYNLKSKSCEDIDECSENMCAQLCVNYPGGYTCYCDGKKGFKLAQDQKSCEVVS
The experiment in a line: ELISA, calcium-free TBS.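 Further: binding of mouse antibodies detected by ELISA with an HRP-conjugated goat anti-mouse IgG secondary and TMB substrate development.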
Procedure: as §1
For B1, the binding result is listed as “no binding”.
For B2, the binding result was “no binding”.
With B12, the binding result is recorded as “no binding”.
On to B3, for which the binding result is on record as “no binding”.
On the same count and under the same terms, for B4 the value was “no binding”; for B5, “no binding”; for B6, “no binding”.
B11: the binding result is on record as “no binding”.
As for B7, the binding result is reported as “no binding”.
On the same count and under the same terms, for B8 the value was “no binding”.
Same read-out and setting: for B9 the value was “no binding”.
In the case of B10, the binding result was “no binding”.

The target of another assay is T5, Gla-domain deleted recombinant human Protein S (human, UniProt P07225 114-676).
T5 construct: also called hPS-dGla; desGla human Protein S
T5 sequence: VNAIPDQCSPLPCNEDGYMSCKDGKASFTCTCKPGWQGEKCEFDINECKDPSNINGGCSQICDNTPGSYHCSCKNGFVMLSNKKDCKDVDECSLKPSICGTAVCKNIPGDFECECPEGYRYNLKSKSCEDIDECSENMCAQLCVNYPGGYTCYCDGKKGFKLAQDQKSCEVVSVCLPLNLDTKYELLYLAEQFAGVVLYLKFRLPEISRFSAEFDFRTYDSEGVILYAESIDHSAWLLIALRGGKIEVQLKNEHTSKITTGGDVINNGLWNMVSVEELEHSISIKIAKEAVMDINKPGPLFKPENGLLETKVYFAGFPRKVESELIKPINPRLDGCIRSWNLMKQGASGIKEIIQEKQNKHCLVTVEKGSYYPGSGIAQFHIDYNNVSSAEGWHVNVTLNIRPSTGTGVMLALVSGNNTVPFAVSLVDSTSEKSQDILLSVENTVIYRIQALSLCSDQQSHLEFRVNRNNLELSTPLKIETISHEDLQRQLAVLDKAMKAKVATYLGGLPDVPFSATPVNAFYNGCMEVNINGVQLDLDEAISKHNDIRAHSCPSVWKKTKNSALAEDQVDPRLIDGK
The experiment in a line: ELISA, calcium-free TBS.
Procedure: as §1
As to B1, the binding result is “binds”.
Take B2: the binding result is “binds”.
Regarding B3, the binding result is reported as “binds”.
Same read-out and setting: as for B4, the entry is “binds”.
Same read-out and setting: as for B5, the entry is “binds”; as for B6, “binds”.
Same read-out and setting: for B11 the value was “binds”; for B7, “binds”; for B8, “binds”.
For B9, the binding result is “binds”.
The same measure, in the same setting: for B10 the value was “binds”.
